The values that follow come from US20200140551A1 (GlaxoSmithKline, published 2020).

Assay [1] concerns the target T1, human ICOS on human T cells (human, UniProt Q9Y6W8 21-167).
T1 construct: endogenous receptor on primary cells; also called ICOS on CD4+ and CD8+ T cells of healthy human donors
T1 sequence: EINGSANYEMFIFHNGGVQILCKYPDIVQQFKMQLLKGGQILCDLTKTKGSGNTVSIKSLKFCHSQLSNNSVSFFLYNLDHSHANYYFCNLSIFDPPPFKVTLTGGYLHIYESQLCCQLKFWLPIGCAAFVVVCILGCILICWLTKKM
Put plainly: flow cytometry, activated human CD4 T cells, percent FITC positive, mean of donors. The method, then: (§1) Binding of H2L5 hIgG4PE was assessed in both naive and activated CD3+ T cells.
(§2) Either naive and/or activated CD3+ T cells were re-suspended in PBS with 0.1% BSA (FACS Buffer) containing Human FcR Blocking Solution at 2×10⁶ cells/mL (5 μl FcR Blocking Solution+[…] FACS Buffer per 1 mL). At a concentration of 2×10⁵ cells/well, 100 μl cells were placed into 2 mL 96 well Assay Blocks and incubated at room temperature for 15 minutes. During the incubation, a titration of the binding antibodies, anti-ICOS (H2L5 hIgG4PE) or IgG4 Isotype Control antibody was prepared as a 2× concentration. […] Following the binding incubation, cells were washed twice in 1 mL of FACS buffer, centrifuging at 400×g for 5 minutes at room temperature.
(§3) Data acquisition and compensation were performed on BD FACS instruments, LSR Fortessa X-20 or FACS Canto II using BD Diva (ver. 8.0) software. Data analysis employed Flow Jo software (ver.10.0.8r1). Results are reported as both MFI (Median Fluorescence Intensity) and Percent of cells positive for human IgG kappa light chain FITC staining out of the total live cells or appropriate parent population. EC50s were determined using Graphpad Prism 5 software (ver. 5.04) with non-linear regression of transformed data (X=(log(X)) using a variable slope with 4 parameters (log(Agonist) vs. response—Variable slope).

The target in assay [2] is T1, human ICOS on human T cells. Put plainly: flow cytometry, activated human CD4 T cells, percent FITC positive, donor 1141F45. The method, then:
as §2, §3
In general terms: Flow cytometry measures light scatter and fluorescence of single cells or particles in a stream.

For assay [3] the target is unchanged. Put plainly: flow cytometry, activated human CD4 T cells, percent FITC positive, donor 1124F36. The method, then:
as §1, §2, §3

For another assay, the target named is T2, human ICOS (human, UniProt Q9Y6W8 21-140, limits assumed).
T2 sequence: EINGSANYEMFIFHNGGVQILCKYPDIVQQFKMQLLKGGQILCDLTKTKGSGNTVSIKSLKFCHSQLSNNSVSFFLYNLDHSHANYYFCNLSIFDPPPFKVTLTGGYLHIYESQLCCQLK
Nature of the assay: MSD competition assay: inhibition of ICOS-L binding to ICOS by titrated antibody, bar chart in raw luminescence units.

The target in assay [4] is T1, human ICOS on human T cells. Nature of the assay: flow cytometry, activated human CD4 T cells, percent FITC positive, median of donors. The method, then:
as §1, §2, §3

For assay [5] the target is unchanged. Put plainly: flow cytometry, activated human CD4 T cells, FITC MFI, median of donors. The method, then:
as §1, §2, §3

Assay [6] has the same target. Put plainly: flow cytometry, activated human CD4 T cells, FITC MFI, donor 1173F42. The method, then: as §2, §3
For assay [7] the target is unchanged. Put plainly: flow cytometry, activated human CD8 T cells, FITC MFI, donor 1173F42. The procedure: as §2, §3
For assay [8] the target is unchanged. Put plainly: flow cytometry, activated human CD8 T cells, FITC MFI, donor 1149M52. The procedure: as §1, §2, §3
For assay [9] the target is unchanged. Put plainly: flow cytometry, activated human CD4 T cells, percent FITC positive, donor 1173F42. The procedure:
as §1, §2, §3

B1: H2L5 hIgG4PE (antibody)
heavy: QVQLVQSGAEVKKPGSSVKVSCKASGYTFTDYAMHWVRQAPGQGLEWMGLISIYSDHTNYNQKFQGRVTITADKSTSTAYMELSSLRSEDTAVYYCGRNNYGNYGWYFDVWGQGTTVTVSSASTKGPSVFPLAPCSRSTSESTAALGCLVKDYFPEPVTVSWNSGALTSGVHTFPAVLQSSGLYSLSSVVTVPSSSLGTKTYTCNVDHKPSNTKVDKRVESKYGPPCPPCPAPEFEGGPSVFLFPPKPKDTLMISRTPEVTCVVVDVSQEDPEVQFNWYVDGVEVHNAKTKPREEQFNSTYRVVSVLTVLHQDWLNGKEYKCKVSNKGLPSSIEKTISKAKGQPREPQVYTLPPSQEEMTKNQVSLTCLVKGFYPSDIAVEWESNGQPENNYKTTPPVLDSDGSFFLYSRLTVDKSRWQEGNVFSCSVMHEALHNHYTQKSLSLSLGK
light: EIVLTQSPATLSLSPGERATLSCSASSSVSYMHWYQQKPGQAPRLLIYDTSKLASGIPARFSGSGSGTDYTLTISSLEPEDFAVYYCFQGSGYPYTFGQGTKLEIKRTVAAPSVFIFPPSDEQLKSGTASVVCLLNNFYPREAKVQWKVDNALQSGNSQESVTEQDSKDSTYSLSSTLTLSKADYEKHKVYACEVTHQGLSSPVTKSFNRGEC
notes: also called 422 H2L5 hIgG4PE; H2L5 IgG4PE; copies: 2 + 2
The term EC50 denotes the midpoint of the concentration-response curve. A high value points to lower potency in that assay. Consider B1, for which the EC50 in assay [1] amounted to 0.763 µg/mL; in [2], 0.965 µg/mL; in assay [3] it was 0.45 µg/mL; in assay [4] it was 0.834 µg/mL; in [5], 1.04 µg/mL; in assay [6] it was 0.636 µg/mL. Also, the EC50 is 0.27 µg/mL in assay [7], 0.74 µg/mL in assay [8] and 0.612 µg/mL in assay [9]. In the assay with human ICOS, the “IC50 (read off the curve)” value is roughly 2 µg/mL.
